We go through four molecules from PMC4525488, “Structure-based Mechanistic Insights into Terminal Amide Synthase in Nosiheptide-Represented Thiopeptides Biosynthesis” (Scientific Reports, 2015).

B4: truncated NosA_(1-111) variant (domain or fragment, UniProt C6FX40 1-111, looked up)
chain: MTEHPAQQLYCTVVLWDLSRSAATVASLRAYLRDHAVDAYTTVPGLRQKTWISSTGPEGEQWGAVYLWDSPEAAYGRPPGVSKVVELIGYRPTERRYYSVEAATEGPAAAA
notes: NosA, terminal amide synthase of nosiheptide biosynthesis

Series [1] deals with the molecule itself. As to the kind of experiment: SEC; Superdex 75 10/300 GL, 50 mM Tris-HCl pH 7.5, 50 mM NaCl; retention compared with gel filtration markers of 44 kDa and 17 kDa. (In gel filtration, larger molecules generally elute earlier.)
Series [2] deals with B4. As to the kind of experiment: ITC; ITC-200, 20 mM Tris-HCl, 150 mM NaCl, pH 7.0, 298 K; who was in the syringe is not told. The conditions noted are these: both partners purified. Background: In ITC the heat of successive injections is recorded.
Series [3] concerns the molecule itself. The series is described as follows: crystal structure; Se-Met NosA_(1-111), sitting-drop vapor diffusion at 293 K; 0.02 M magnesium chloride hexahydrate, 0.1 M HEPES pH 6.0-9.0, 22% w/v polyacrylic acid 5100; SAD, 2.40 Å.

B1: full-length NosA (wild type) (enzyme, UniProt C6FX40 1-151, looked up)
chain: MTEHPAQQLYCTVVLWDLSRSAATVASLRAYLRDHAVDAYTTVPGLRQKTWISSTGPEGEQWGAVYLWDSPEAAYGRPPGVSKVVELIGYRPTERRYYSVEAATEGPAAAAAPFGKGLGLAFDPASPEPLTRPQEFVPPGADAFIPSRPPA
notes: NosA, terminal amide synthase of nosiheptide biosynthesis; Cloned in pET28a by NheI and HindIII; also called WT NosA; WT full-length NosA
The term stoichiometry N denotes a count of units in the complex or per binding partner. As for B1, the “stoichiometry N” value in series [1] came to 2.

B2: C-terminal NosA_(112-151) peptide (peptide, UniProt C6FX40 112-151, looked up)
chain: APFGKGLGLAFDPASPEPLTRPQEFVPPGADAFIPSRPPA
notes: NosA, terminal amide synthase of nosiheptide biosynthesis; Cloned in the pSMT3 vector; source: 15N-labelled in M9 medium for NMR
In general, Kd refers to the equilibrium constant for the complex coming apart. Lower therefore signals tighter binding. Consider B2, for which, in series [2], the dissociation constant (Kd) was 2400 ± 1200 µM.

B3: selenomethionine NosA_(1-111) (domain or fragment, UniProt C6FX40 1-111, looked up)
chain: MTEHPAQQLYCTVVLWDLSRSAATVASLRAYLRDHAVDAYTTVPGLRQKTWISSTGPEGEQWGAVYLWDSPEAAYGRPPGVSKVVELIGYRPTERRYYSVEAATEGPAAAA
modifications: selenomethionine in place of methionine (one Met residue at the N-terminal sequence)
notes: NosA, terminal amide synthase of nosiheptide biosynthesis; the crystallised form
B3: the binding result in series [3] is reported as “binds”.
On to B4, for which the “stoichiometry N” value in series [1] is 2.
